In the DeepSol protein solubility set:

Assay: soluble on expression in E. coli; label from the status in PepcDB or PDB records

Sequence | soluble on expression in E. coli
MAGDPMFKKRLNKDKINDCYTWEEELPDGSYDMGFHGNLNHMEKGKSGYVTHKQLDKKLEVFKQDLLVELSEKFVTKEEFRAQGKQIKELQIEQKAQGKTLQLILEALQGINKRLDKLESKLEHHHHHH | soluble
MAGDPMKKLAFAITATSGAAAFLTHHDAQASTQHTVQSGESLWSIAQKYNTSVESIKQNNQLDNNLVFPGQVISVGGSDAQNSSNTSPQAGSASSHTVQAGESLNIIASRYGVSVDQLMAANNLRGYLIMPNQTLQIPNGGSGGTTPTATTGSNGNASSFNHQNLYTAGQCTWYVFDRRAQAGSPISTYWSDAKYWAGNAANDGYQVNNTPSVGSIMQSTPGPYGHVAYVERVNGDGSILISEMNYTYGPYNMNYRTIPASEVSSYAFIHLEHHHHHH | not soluble
MAGDPMREITDIAVAESGDSDFKERLETKNAKSWLKSVSAFANGIGGTLYFGVEDRTRRIIGVQDIQLTISKITELIVARITPRPVFECIPLQQKGKDILAVRVDSGKHTPFYYVHDHHHTAYIRMGDESVPATDYQLNELILKGRNETYDSQITEKLRTDYSFTLLEATYLHTLNQHMSDSDYVSFGLAVEDGRLTNAGLLFADQCPLPDSRVFCTRWNGLQRGSVHEDATDDAEYSGNLIYLLKSATEFIRRNTRKGWTKTANGRVEKPDYAERAYFEGVVNALIHRTYDFRGTEVHVEMYDDRLVISSPGGIYGGGELEPMSDGSYISKRRNPILADIFSRLRYMERRGSGIKKIFEATKNLYGYTEEKKPFFLVNKQNDFFLTIPNVNYRSESVTTHDTIHDTIHDTIHDTIHDKIALLLSFCQTPRSREEMMEFVGLRNRDHFQKKYLRPLLEQEKIEMTIPEKPQSKNQKYRTKEVVKLEHHHHHH | soluble
MAGDPMRRTLYRLMIELTNGRFTSYILRKFAQSRLSSIIIPSYAKVFQINQDEMEKGLKEYRTLHELFTRKLKEGKRSIDTDASSIVSPVDGVFADHGPIEDTKTFDIKGKRYSIVDMLGNEERATRYAGGTYMVIYLSPSHYHRIHSPLSGSVTERFVLGRKSYPVNAAGMEYGKEPLSKNYRSVTEVSSDGEHMALVKVGAMFVNSIELLHERDTVQKGEEMAYFTFGSTVVLLFEKDMIEVVQELKSGQELRLGEKIATRLAHKLEHHHHHH | not soluble
MAGDPMRVEVGQIVNTHGIKGEIKVKSNSDFTDVRFQPGQVLTVVHNNNDLEYTVKSHRVHKGLHMLTFEGINNINDIEHLKGSSIYQERDHEDIVLEENEFYYSDIIGCTVFDDQETPIGRVINIFETGANDVWVIKGSKEYLIPYIADVVKEVDVENKKIIITPMEGLLDLEHHHHHH | soluble
MAGDRKRGFIRPDEDYALIEPQRWGLPDYGDSKEKKAKQTAFNYDPSWVPNFDEPEEEQALELTEEQIELIKQGAYQEGLYQGQEAGFKQGYDKGKEEGLQAGHAEGLELGKAEGVSAGQEFIQQQVEVFMNLANQFAQPLELMNAQVEKQLVDMVLCLVKEVVHVEVQTNPQIILDTVKQSVEALPISGHPITLHLNPEDVAIIRSAYGEEDLDCRNWTLVSEPSLNRGDVQIEAGESSINYRMEERIKSVLHSFCGANRHQEGELEHHHHHH | soluble
MAGFFNKLTGFFTISRQHNPPFEAASKSRRMGGFDPAKKHINKAIEECGDTIVARSRWLYDNESLYGSATEEWVSAAVSDGIKPYPRIEGFQEEKKKLLDLWWQWVDEADYDEDANFYGLQATIAREVFLTGECFVRLHYVDLYGRSGVPFQLQIYPTEMLDLTYNGPAETEGNYIRMGIEFNASGKRVAYHFWEHHPYDDCPANRAFKSQDRIRVPAEMVLHIKERRIAGQLRGSPKITRSMTKIFQLESYDDAELDRKRTAALFAVFITGKESHDAALEENREQTRLPKKPEEAADVDKIYPGSVNMVDGEKQITFSTPVEVGGSYEAFQFRNILKICSALNMPYAVVTGDVTRGNFSNVRTSIIQFRRHVKQWREHIIAFQFNRIVWERFVEMAVLSGRVHLPGWEENPLPWLQCESFAPPLEMIDPNKDISAEKEEIRAGLKTRRMALAERGFDIDSIHAELEEEHTDARARGLSFDTDMAASSGDNQIIDTTDSDPSETYESNQGSEAHKNGE | not soluble
MAGFISNFFGVGDSDSQYEEPTEASQAAAPTESATNTRSTPKVVPMQGGKSVNSKIALFEPKIYSDVKEIATQLLKNQAVIINFDHVDDEMARRIVDFLTGTVFAINGEIERIGDEIFLCIPENYEVSGSTTSQFDTSKLLEHHHHHH | not soluble
MAGIAMKLAKDREAAEGLGSHERAIKYLNQDYETLRNECLEAGALFQDPAFPPVSHSLGFKELGPNSSKTYGIKWKRPTELLSNPQFIVDGATRTDICQGALGDSWLLAAIASLTLNETILHRVVPYGQSFQEGYAGIFHFQLWQFGEWVDVVVDDLLPTKDGKLVFVHSAQGNEFWSALLEKAYAKVNGSYEALSGGCTSEAFEDFTGGVTEWYDLQKAPSDLYQIILKALERGSLLGCSINISDIRDLEAITFKNLVRGHAYSVTDAKQVTYQGQRVNLIRMRNPWGEVEWKGPWSDNSYEWNKVDPYEREQLRVKMEDGEFWMSFRDFIREFTKLEICNLTPDALKSRTLRNWNTTFYEGTWRRGSTAGGCRNYPATFWVNPQFKIRLEEVDDADDYDSRESGCSFLLALMQKHRRRERRFGRDMETIGFAVYQVPRELAGQPVHLKRDFFLANASRAQSEHFINLREVSNRIRLPPGEYIVVPSTFEPNKEGDFLLRFFSEKKAGTQELDDQIQANLPDEKVLSEEEIDDNFKTLFSKLAGDDMEISVKELQTILNRIISKHKDLRTNGFSLESCRSMVNLMDRDGNGKLGLVEFNILWNRIRNYLTIFRKFDLDKSGSMSAYEMRMAIEAAGFKLPCQLHQVIVARFADDELIIDFDNFVRCLVRLEILFKIFKQLDPENTGTIQLDLISWLSFSVLGKLAAAIEHHHHHHMHYSNIEANESEEERQFRKLFVQLAGDDMEVSATELMNILNKVVTRHPDLKTDGFGIDTCRSMVAVMDSDTTGKLGFEEFKYLWNNIKKWQGIYKRFETDRSGTIGSNELPGAFEAAGFHLNQHIYSMIIRRYSDETGNMDFDNFISCLVRLDAMFRAFRSLDKNGTGQIQVNIQEWLQLTMYS | soluble
MAGMFQDLLYLNLIGAVRAITAAQGIKIRISGEENVPESGGAVVVVNHTGYLDFIYAGYPFRKFRRYIRYMAKGDVFKHPVAGPLLREMRHIPVDRIDGTAAFDQAVDMLKKGELVGIFPEATISRSFEIKTLRPGAVRMAQAAGVPIIMVMVVGSQRVWTKGQKKNLIHPGSPIHMKVFPAWYPEGDANEATQELRRRMITGLEEVWSDYQAEEPIVPGALWVPARLGGGAPTFDEAQAEDEKVEQERRRVRVLTEEIAQLTERIKQATKAGASAVDAARHRVEDVLHGEVPAKADAGKALSVLKDTVDEFVEEVVSSAKEGKDRVMDAGEQLRRSVADLYGQAVTASQVNPVVVQATAQVSMLLDRLPQRKDAPKVELPRVLVLSVDGAVAAYPEVTLSPSVLSQVAALSQQHTVVLTTISGMDRVVALARQVAQESGADVCVSASAGAVAATVSDTDVSVLHECVVSDELRAAVQECVDSLGLDVEWKGAHHGVVSGLGADPDLWQELSQVVRVVPLPGEPDRCVIVSPEASVEAAVQTCVGDVWDEVLVCAADASEAGALARAGHRVAVVSAPVVVLREAAQWCDRPDKDGVINFLDKHFITPESV | not soluble
MAGQEFEKLLFYIVTVPFFVRAEPTTGELINPQAGAPFFLATAATTMDYEVEMVITSEAGYLLMRDNAKKVKVRPGVEQTVYDFIKMAKDAGVKIYLCTPSLDLTDIYKEEDVNKEICDGILGGAAFLDKLMSGEYAVITL | not soluble
MAGRPKDPTINKKIYTEIQRLLETTHFRDITIDQISENTGISKATIYRRWKDKSSIIMSAFIEQSQYIAIHNQDNLYDDLFQFLVKIKDIYKTKLGSAVIEILISHQQMEARETFMTNYFNHNRKVLKEIVRKHIQEEEQDLFIDLIFSPIYFNILIKPETLDENYIKKMLNQVLRIYH | not soluble
